Tests used:
[1] = biological target: microtubules (MTs; α-tubulin/β-tubulin) (UniProt P02554)
[2] = biological target: microtubules (MTs; α-tubulin/β-tubulin) (UniProt P02554); experiment: other fluorescence titration; fluorescently labeled MAP7 on MTs at different concentrations, fluorescence intensity fit to the Hill equation; 150 mM KAc

Substance: full-length (FL) MAP7 (from UniProt Q14244 1-749) (natural protein)
- half-max inhibition constant of the run frequency of dynein-dynactin-BicDR1 (DDR) on MTs against MAP7 concentration (blocks dynein on MTs); 150 mM KAc [1]: 10 nM
- Kd [2]: 111 nM
